The record followed here is the Human Domainome abundance scans (Beltran et al. 2025).

The chains are these.
B1: SAM and SH3 domain-containing protein 1, residues 630 to 700; numbered along this chain, O94885 (parent)
chain: GRPPQPKSVEDLLDRINLKEHMPTFLFNGYEDLDTFKLLEEEDLDELNIRDPEHRAVLLTAVELLQEYDSN

± gives the uncertainty stated by the source.

In this data set the parent is B1. The data set is described as follows: abundance fitness (aPCA) (normalised: wild type 0, dead -1); higher = more abundant; growth selection in yeast, the domain comes from the species named. Conditions: Homo sapiens.
For the variant GRPPQPKSVEDLLDRINLKEHMPTSLFNGYEDLDTFKLLEEEDLDELNIRDPEHRAVLLTAVELLQEYDSN, the abundance fitness was -0.706 ± 0.056. For the variant GRPPQPKSVEDLLDRINLKEHMPTYLFNGYEDLDTFKLLEEEDLDELNIRDPEHRAVLLTAVELLQEYDSN, the abundance fitness was -0.893 ± 0.091. For GRPPQPKSVEDLLDRINLKEHMPTNLFNGYEDLDTFKLLEEEDLDELNIRDPEHRAVLLTAVELLQEYDSN, the abundance fitness is -0.612 ± 0.072. In the case of GRPPQPKSVEDLLDRINLKEHMPTLLFNGYEDLDTFKLLEEEDLDELNIRDPEHRAVLLTAVELLQEYDSN, the abundance fitness was -0.266 ± 0.041. Take GRPPQPKSVEDLLDRINLKEHMPTFLFHGYEDLDTFKLLEEEDLDELNIRDPEHRAVLLTAVELLQEYDSN: the abundance fitness turned out to be 0.109 ± 0.041. On to GRPPQPKSVEDLLDRINLKEHMPTFLFPGYEDLDTFKLLEEEDLDELNIRDPEHRAVLLTAVELLQEYDSN, for which the abundance fitness is -0.856 ± 0.075.

In the case of GRPPQPKSVEDLLDRINLKEHMPTFLFCGYEDLDTFKLLEEEDLDELNIRDPEHRAVLLTAVELLQEYDSN, the abundance fitness is -0.582 ± 0.065. Consider GRPPQPKSVEDLLDRINLKEHMPTFLFRGYEDLDTFKLLEEEDLDELNIRDPEHRAVLLTAVELLQEYDSN, for which the abundance fitness was -0.607 ± 0.049. With GRPPQPKSVEDLLDRINLKEHMPTFLFAGYEDLDTFKLLEEEDLDELNIRDPEHRAVLLTAVELLQEYDSN, the abundance fitness was -0.006 ± 0.04. On to GRPPQPKSVEDLLDRINLKEHMPTFLFGGYEDLDTFKLLEEEDLDELNIRDPEHRAVLLTAVELLQEYDSN, for which the abundance fitness was -0.157 ± 0.043. Turning to GRPPQPKSVEDLLDRINLKEHMPTFLFFGYEDLDTFKLLEEEDLDELNIRDPEHRAVLLTAVELLQEYDSN, the abundance fitness is -0.426 ± 0.062. Consider GRPPQPKSVEDLLDRINLKEHMPTFLFDGYEDLDTFKLLEEEDLDELNIRDPEHRAVLLTAVELLQEYDSN, for which the abundance fitness is -0.812 ± 0.091. As to GRPPQPKSVEDLLDRINLKEHMPTFLFIGYEDLDTFKLLEEEDLDELNIRDPEHRAVLLTAVELLQEYDSN, the abundance fitness was -1.08 ± 0.11. Take GRPPQPKSVEDLLDRINLKEHMPTFLFEGYEDLDTFKLLEEEDLDELNIRDPEHRAVLLTAVELLQEYDSN: the abundance fitness was -0.647 ± 0.098. GRPPQPKSVEDLLDRINLKEHMPTFLFTGYEDLDTFKLLEEEDLDELNIRDPEHRAVLLTAVELLQEYDSN: the abundance fitness was -0.831 ± 0.069. GRPPQPKSVEDLLDRINLKEHMPTFLFKGYEDLDTFKLLEEEDLDELNIRDPEHRAVLLTAVELLQEYDSN: the abundance fitness was -0.426 ± 0.064. As to GRPPQPKSVEDLLDRINLKEHMPTFLFSGYEDLDTFKLLEEEDLDELNIRDPEHRAVLLTAVELLQEYDSN, the abundance fitness was -0.395 ± 0.039. As to GRPPQPKSVEDLLDRINLKEHMPTFLFLGYEDLDTFKLLEEEDLDELNIRDPEHRAVLLTAVELLQEYDSN, the abundance fitness is -0.855 ± 0.058. Regarding GRPPQPKSVEDLLDRINLKEHMPTFLFMGYEDLDTFKLLEEEDLDELNIRDPEHRAVLLTAVELLQEYDSN, the abundance fitness was -0.687 ± 0.081.

GRPPQPKSVEDLLDRINLKEHMPTFLFQGYEDLDTFKLLEEEDLDELNIRDPEHRAVLLTAVELLQEYDSN: the abundance fitness was -0.644 ± 0.077.

GRPPQPKSVEDLLDRINLKEHMPTFLLNGYEDLDTFKLLEEEDLDELNIRDPEHRAVLLTAVELLQEYDSN: the abundance fitness amounted to 0.346 ± 0.031. As to GRPPQPKSVEDLLDRINLKEHMPTFLYNGYEDLDTFKLLEEEDLDELNIRDPEHRAVLLTAVELLQEYDSN, the abundance fitness worked out at 0.122 ± 0.045. GRPPQPKSVEDLLDRINLKEHMPTFLQNGYEDLDTFKLLEEEDLDELNIRDPEHRAVLLTAVELLQEYDSN: the abundance fitness came out at 0.393 ± 0.043. The value for GRPPQPKSVEDLLDRINLKEHMPTFLGNGYEDLDTFKLLEEEDLDELNIRDPEHRAVLLTAVELLQEYDSN was 0.166 ± 0.039; that for GRPPQPKSVEDLLDRINLKEHMPTFLRNGYEDLDTFKLLEEEDLDELNIRDPEHRAVLLTAVELLQEYDSN was 0.38 ± 0.033.

Take GRPPQPKSVEDLLDRINLKEHMPTFLPNGYEDLDTFKLLEEEDLDELNIRDPEHRAVLLTAVELLQEYDSN: the abundance fitness was -0.655 ± 0.061.

For the variant GRPPQPKSVEDLLDRINLKEHMPTFLDNGYEDLDTFKLLEEEDLDELNIRDPEHRAVLLTAVELLQEYDSN, the abundance fitness was determined as 0.446 ± 0.046. As to GRPPQPKSVEDLLDRINLKEHMPTFLMNGYEDLDTFKLLEEEDLDELNIRDPEHRAVLLTAVELLQEYDSN, the abundance fitness was found to be 0.327 ± 0.041. With GRPPQPKSVEDLLDRINLKEHMPTFLCNGYEDLDTFKLLEEEDLDELNIRDPEHRAVLLTAVELLQEYDSN, the abundance fitness stood at 0.272 ± 0.04. For the variant GRPPQPKSVEDLLDRINLKEHMPTFLNNGYEDLDTFKLLEEEDLDELNIRDPEHRAVLLTAVELLQEYDSN, the abundance fitness came to 0.418 ± 0.04.

With GRPPQPKSVEDLLDRINLKEHMPTFLHNGYEDLDTFKLLEEEDLDELNIRDPEHRAVLLTAVELLQEYDSN, the abundance fitness came to 0.246 ± 0.042.

Consider GRPPQPKSVEDLLDRINLKEHMPTFLWNGYEDLDTFKLLEEEDLDELNIRDPEHRAVLLTAVELLQEYDSN, for which the abundance fitness is -0.449 ± 0.054. Next, GRPPQPKSVEDLLDRINLKEHMPTFLINGYEDLDTFKLLEEEDLDELNIRDPEHRAVLLTAVELLQEYDSN: 0.157 ± 0.045; GRPPQPKSVEDLLDRINLKEHMPTFLSNGYEDLDTFKLLEEEDLDELNIRDPEHRAVLLTAVELLQEYDSN: 0.406 ± 0.032; GRPPQPKSVEDLLDRINLKEHMPTFLVNGYEDLDTFKLLEEEDLDELNIRDPEHRAVLLTAVELLQEYDSN: 0.235 ± 0.037.

Take GRPPQPKSVEDLLDRINLKEHMPTFLTNGYEDLDTFKLLEEEDLDELNIRDPEHRAVLLTAVELLQEYDSN: the abundance fitness worked out at 0.341 ± 0.036. The value for GRPPQPKSVEDLLDRINLKEHMPTFLENGYEDLDTFKLLEEEDLDELNIRDPEHRAVLLTAVELLQEYDSN was 0.491 ± 0.047. With GRPPQPKSVEDLLDRINLKEHMPTFLKNGYEDLDTFKLLEEEDLDELNIRDPEHRAVLLTAVELLQEYDSN, the abundance fitness was found to be 0.507 ± 0.04.
